In the supplement of paper PMC10065799, “High-throughput profiling of sequence recognition by tyrosine kinases and SH2 domains using bacterial peptide display” (eLife, 2023):

What follows are sequences tested against EPHB2 (UniProt P29323) (assay: phosphorylation enrichment, bacterial display (enrichment ratio); higher = better substrate or ligand; peptides without Tyr show the background).
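Also: 11-residue human phosphosite peptides and single-mutation variants displayed on the E. coli surface, counted by deep sequencing, each peptide's frequency after selection divided by its frequency in the unselected input library; frequency after pTyr selection over input frequency; kinase dosed for 20-30% of maximal phosphorylation in three min.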

EPHB2, sequence (P29323 whole entry, looked up): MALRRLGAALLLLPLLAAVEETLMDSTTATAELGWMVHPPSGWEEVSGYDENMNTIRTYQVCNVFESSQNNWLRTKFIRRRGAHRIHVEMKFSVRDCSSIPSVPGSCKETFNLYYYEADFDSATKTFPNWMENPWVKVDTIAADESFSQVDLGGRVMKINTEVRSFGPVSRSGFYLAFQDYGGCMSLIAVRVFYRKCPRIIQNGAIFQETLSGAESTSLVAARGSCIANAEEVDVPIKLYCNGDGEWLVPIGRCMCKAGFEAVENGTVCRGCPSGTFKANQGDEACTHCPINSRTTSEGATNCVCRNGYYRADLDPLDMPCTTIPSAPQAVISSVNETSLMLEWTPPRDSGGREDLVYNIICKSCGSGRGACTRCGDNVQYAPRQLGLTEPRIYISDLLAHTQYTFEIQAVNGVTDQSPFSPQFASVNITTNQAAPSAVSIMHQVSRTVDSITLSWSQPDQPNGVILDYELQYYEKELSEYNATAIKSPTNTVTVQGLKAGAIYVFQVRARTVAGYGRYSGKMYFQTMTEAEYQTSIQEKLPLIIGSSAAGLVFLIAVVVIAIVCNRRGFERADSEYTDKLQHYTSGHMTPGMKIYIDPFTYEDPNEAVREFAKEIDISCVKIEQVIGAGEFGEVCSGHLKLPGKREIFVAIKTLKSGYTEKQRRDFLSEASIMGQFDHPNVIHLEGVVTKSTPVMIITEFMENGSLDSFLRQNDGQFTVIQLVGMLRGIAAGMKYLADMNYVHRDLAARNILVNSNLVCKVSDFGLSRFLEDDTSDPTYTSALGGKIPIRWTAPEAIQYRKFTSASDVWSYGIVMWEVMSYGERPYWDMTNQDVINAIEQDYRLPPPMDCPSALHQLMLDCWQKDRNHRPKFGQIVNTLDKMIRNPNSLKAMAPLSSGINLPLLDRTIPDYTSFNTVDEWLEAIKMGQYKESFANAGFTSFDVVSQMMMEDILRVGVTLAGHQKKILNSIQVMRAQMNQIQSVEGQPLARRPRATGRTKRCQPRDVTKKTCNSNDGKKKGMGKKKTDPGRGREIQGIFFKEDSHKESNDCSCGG

Sequence | phosphorylation enrichment
AFGGGYGGVLT [KRT19_Y65_YF] | 0.407
GLETSYIEDNC [PAH_Y24_Q20L] | 0.569
RELGEYGLQAF [ALDH2_Y497_YF] | 1.07
TPIFPYLLPKS [PLD2_Y580_T577I_YF] | 0.463
RLPNGYGLAYR [DLK1_Y262_S260N] | 0.528
EDSEFYRAFEE [CASQ2_Y179_K180R_YF] | 0.525
QADVVYVNTQL [MERTK_Y872_I871V] | 1.17
PDGVEYLKNDP [GRIN3A_Y831] | 0.524
FSPPFYHRNCM [HGD_Y334_R330S_YF] | 0.545
KKEGPYDVVVL [PARK7_Y67] | 0.49
KVKSIYFHTQG [AR_Y916_P914S] | 0.449
GANFEYIIAEK [ECHS1_Y35] | 0.455
AELVQYYMEHH [PTPN11_Y80] | 1.01
FADGVYQALEE [DUOX2_Y70_YF] | 1.5
FRSSLYSLMET [MYO5C_Y633_L634S] | 1.84
FFCRWYRNRKS [EREG_Y144_YF] | 0.514
VIEYSYTSADG [DHCR7_Y382_C380Y] | 0.633

Sequence | phosphorylation enrichment
SSTAMYSAAGR [PSMB1_Y8_P11A] | 0.364
LNPVVYTLRNA [OR4C12_Y285] | 0.636
DLVSEYQQFQD [TUBB3_Y422_YF] | 0.662
AGHEEYSAMRD [KRAS_Y64_Q61H] | 0.578
IRFSDYVEVAD [PHACTR1_Y525] | 0.977
SDQRRYSLIDR [CLIP2_Y972] | 0.444
MSRNLYSGDFF [DDR2_Y736_YF] | 10
RYFTTYDTNGR [CLCA1_Y665] | 0.698
SQGRQYQELPR [KCNH2_Y1009_R1005Q] | 0.402
LRRFIYRPPDR [OTOF_Y1231] | 0.656
TEALFYTDDPA [ADPRS_Y75_T79P_YF] | 0.894
CTTIHHNYMCN [TP53_Y234_Y234H] | 0.531
NLVSEYQQYQD [TUBB3_Y422_D417N] | 0.693
RVILRYVNPGT [LAMA3_Y791] | 0.666
PQDSAYHSGIQ [FLG_Y3940_S3935P] | 0.49
KLPDAYERFIL [G6PD_Y437_L440F] | 0.562

What follows are sequences tested against FGFR1 (UniProt P11362) in the same assay as above.
FGFR1, sequence (P11362 whole entry, looked up): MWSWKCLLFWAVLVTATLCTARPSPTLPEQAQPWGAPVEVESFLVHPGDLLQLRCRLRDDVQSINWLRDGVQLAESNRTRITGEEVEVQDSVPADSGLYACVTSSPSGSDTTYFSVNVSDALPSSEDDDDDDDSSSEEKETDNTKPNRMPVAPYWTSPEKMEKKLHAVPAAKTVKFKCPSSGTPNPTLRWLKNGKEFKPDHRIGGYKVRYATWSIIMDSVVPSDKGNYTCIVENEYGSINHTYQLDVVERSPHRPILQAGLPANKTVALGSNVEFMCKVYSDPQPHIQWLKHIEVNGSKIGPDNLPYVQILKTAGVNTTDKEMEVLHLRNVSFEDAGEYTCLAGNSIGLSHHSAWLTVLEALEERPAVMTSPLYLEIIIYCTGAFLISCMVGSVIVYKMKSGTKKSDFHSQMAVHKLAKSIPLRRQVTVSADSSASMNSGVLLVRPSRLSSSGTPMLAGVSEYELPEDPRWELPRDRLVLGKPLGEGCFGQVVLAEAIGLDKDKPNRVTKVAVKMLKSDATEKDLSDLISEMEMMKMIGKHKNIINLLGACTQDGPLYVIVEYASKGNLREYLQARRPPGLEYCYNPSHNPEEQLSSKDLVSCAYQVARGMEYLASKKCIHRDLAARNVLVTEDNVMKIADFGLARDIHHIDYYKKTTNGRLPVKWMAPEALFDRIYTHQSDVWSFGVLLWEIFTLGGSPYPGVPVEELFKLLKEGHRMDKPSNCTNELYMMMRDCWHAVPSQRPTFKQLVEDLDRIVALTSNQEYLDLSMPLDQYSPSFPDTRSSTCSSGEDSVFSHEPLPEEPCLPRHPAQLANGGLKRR

Sequence | phosphorylation enrichment
AFGGGYGGVLT [KRT19_Y65_YF] | 0.338
GLETSYIEDNC [PAH_Y24_Q20L] | 0.655
RELGEYGLQAF [ALDH2_Y497_YF] | 0.653
TPIFPYLLPKS [PLD2_Y580_T577I_YF] | 0.825
RLPNGYGLAYR [DLK1_Y262_S260N] | 0.663
EDSEFYRAFEE [CASQ2_Y179_K180R_YF] | 0.473
QADVVYVNTQL [MERTK_Y872_I871V] | 0.88
PDGVEYLKNDP [GRIN3A_Y831] | 0.537
FSPPFYHRNCM [HGD_Y334_R330S_YF] | 0.513
KKEGPYDVVVL [PARK7_Y67] | 0.494
KVKSIYFHTQG [AR_Y916_P914S] | 0.414
GANFEYIIAEK [ECHS1_Y35] | 0.523
AELVQYYMEHH [PTPN11_Y80] | 0.827
FADGVYQALEE [DUOX2_Y70_YF] | 0.696
FRSSLYSLMET [MYO5C_Y633_L634S] | 0.898
FFCRWYRNRKS [EREG_Y144_YF] | 0.463
VIEYSYTSADG [DHCR7_Y382_C380Y] | 0.711

Sequence | phosphorylation enrichment
SSTAMYSAAGR [PSMB1_Y8_P11A] | 0.512
LNPVVYTLRNA [OR4C12_Y285] | 0.593
DLVSEYQQFQD [TUBB3_Y422_YF] | 0.671
AGHEEYSAMRD [KRAS_Y64_Q61H] | 0.51
IRFSDYVEVAD [PHACTR1_Y525] | 1.88
SDQRRYSLIDR [CLIP2_Y972] | 0.356
MSRNLYSGDFF [DDR2_Y736_YF] | 2.41
RYFTTYDTNGR [CLCA1_Y665] | 0.709
SQGRQYQELPR [KCNH2_Y1009_R1005Q] | 0.483
LRRFIYRPPDR [OTOF_Y1231] | 0.808
TEALFYTDDPA [ADPRS_Y75_T79P_YF] | 0.734
CTTIHHNYMCN [TP53_Y234_Y234H] | 0.601
NLVSEYQQYQD [TUBB3_Y422_D417N] | 0.531
RVILRYVNPGT [LAMA3_Y791] | 0.538
PQDSAYHSGIQ [FLG_Y3940_S3935P] | 0.534
KLPDAYERFIL [G6PD_Y437_L440F] | 0.476
